Substitutions are numbered along the chain they refer to.
B1: Antibody 8-3 (antibody, V domains shown)
VH: EVQLVESGGGLVQPGGSLRLSCAASGITVSSNYMNWVRQAPGKGLDWVSVIYSGGSTFYADSVKGRFIISRDNSKNTLFLQMDSLRVEDTAVYYCARDLVVRGVDIWGQGTMVTVSS
VL: DIQLTQSPSFLSASVGDRVTITCRASQGISSDLAWYHQKPGKAPKLLIYAASTLQSGVPSRFSGSGSGTEFTLTISSLQPEDFATYYCQQLNSYRGLIFGGGTKVEIK
B2: Antibody 29-13 (antibody, V domains shown)
VH: QITLKESGPTLVKPTQTLTLTCTFSGFSLSTSGVGVGWIRQPPGKALEWLALIYWDDDKRYSPSLKSRLSITKDTSKNQVALTVTNMDPVDTATYYCAHRRPGPGSYYFDYWGQGTLVTVSS
VL: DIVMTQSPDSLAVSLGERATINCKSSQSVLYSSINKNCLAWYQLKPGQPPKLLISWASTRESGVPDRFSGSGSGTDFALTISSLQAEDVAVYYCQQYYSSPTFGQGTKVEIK
B3: Antibody 9-1 (antibody, V domains shown)
VH: QLQLQESGPGLVKPSETLSLTCTVSGGSISSSTYYWAWIRQPPGKGLEWIGSIYYSGSTYYNPSLKSRVTISVHTSKNQFSLKLTSVTAADTAVYYCARSMGLHDYWGQGTLVTVSS
VL: DIQMTQSPSSLSASVGDRVTITCRASQGIGNSLAWYQQKPGRAPKFLLYAASTLESGVPSRFSGSGSGTHFTLTISSLQPEDFATYFCQQYYSTPPYTFGQGTRLEIK
B4: Antibody 14-4 (antibody, V domains shown)
VH: QMQLVQSGPEVKKPGTSVKVSCKASGFTFTTSAVQWVRQARGQRLEWIGWIVVGSGNTNYAQKFQERVTITRDMSTSTGYMELSSLRSEDTAVYYCAAPNCNRTSCDDGFDIWGQGTMVTVSS
VL: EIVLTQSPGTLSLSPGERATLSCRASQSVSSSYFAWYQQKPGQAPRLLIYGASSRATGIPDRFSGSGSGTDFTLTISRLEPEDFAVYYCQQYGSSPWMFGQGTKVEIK
B5: Antibody 8-1 (antibody, V domains shown)
VH: EVQLVESGGGLIQPGGSLRLSCAASGLTVSSNYMTWVRQAPGKGLEWVSVIYSGGSTFYAESVKGRFTISRDNSKNTLYLQMNSLRAEDTAVYYCARDLVVYGMDVWGQGTTVIVSS
VL: DIQLTQSPSFLSASVGDRVTITCRASQGISSDLAWYQQKPGKAPKLLIYAASTLQSGVPSRFSGSGSGTEFTLTISSLQPEDFATYYCQQLNSHPLAFGPGTKVDIK
B6: Antibody 34-2 (antibody, V domains shown)
VH: EVQLVESGGGLVQPGRSLRLSCAASGFTFDESAMHWVRQAPGEGLEWVSGISWNSGRIAYADSVRGRFTISRDNAKNSLYLQMNSLRAEDTALYFCALTTSGWFSFDYWGQGTLVTVSS
VL: SYVLTQPPSVSVAPGKTARITCGGNNIGSKSVHWYQQKPGQAPVPVIYYDSDRPSGIPERFSGSNSGNTATLTISRVEVGDEADYYCQVWDSSSDRAVFGGGTTLTVL
B7: Antibody 29-2 (antibody, V domains shown)
VH: QITLKESGPTLVKPTQTLTLTCTFSGFSLSSSGMGVGWIRQPPGKALEWLALIYWNDDKRYSPSLKSRLTITKDTSKNQVVLTLTNMDPVDTATYYCAHTTLYNNCPFDYWGQGTLVTVSS
VL: SYVLTQPPSVSVAPGKTARITCGGNNIGSYSVHWYQQRPGQAPVLVIYYDSDRPSGIPERFSGSNSGNTATLTISRVEAGDEADYYCQVWDNSSNHPWVFGGGTKLTVL
B8: Antibody 9-8 (antibody, V domains shown)
VH: EVQLVESGGGVVQPGGSLRLSCAASGFTFDDYAIHWVRQAPGKGLEWVSLISGDGGTTYYADFVKGRFTISRDNSKNSLYLQMNSLRTEDTALYYCAKDIPVCSSTICYRFTARLHGMDVWGQGTTVTVSS
VL: DIQMTQSPSSLSASVGDRVTITCRASQSISSYLNWYQQKPGKAPKLLIYTASSLQSGVPSRFSGSGSGADFTLTISSLQPEDFATYYCQQRYSTPLTFGGGTKVEIK
B9: Antibody 5-10 (antibody, V domains shown)
VH: EVQLLESGGGLVQPGGSLRLSCAASGFTFSSYAMSWVRQAPGKGLEWVSAIVGSGGSTYYADSVKGRFIISRDNSKNTLYLQMNSLRAEDTAVYYCAKSLIYGHYDILTGAYYFDYWGQGTLVTVSS
VL: DIQMTQSPSSVSASVGDRVTIPCRASQGIGNWLAWYQQKPGKAPKLLIYAASSLQSGVPSRFSGSGSGTDFTLTISSLQPEDFATYYCQQANSFPPFGQGTRLEIK
B10: Antibody 14-8 (antibody, V domains shown)
VH: QVQLVQSGAEVKKPGASVKVSCKASGYTFTGYYIHWVRQAPGKGPEWMGWINPNSGGTNYAQKFQGWVTMTRDTSISAAYMELSRLKFDDTAIYYCAKSGEKVGADLGYYDYGMDLWGQGTTVTVSS
VL: SYELTQPPSVSVSPGQTARITCSGDALPKQYAYWYQQKPGQAPVMVIYKDTERPSGIPERFSGSSSGTTVTLTISGVQAEDEADYNCQSVDSSGAYVVFGGGTKLTVL
B11: Antibody 13-17 (antibody, V domains shown)
VH: QDQLVQSGAEVKKPGASVKVSCKVSGYTLPELSLHWVRQPPGKGLEWMGGFDPEDGETIYAQKFQGRVTMTEDTSTDTAYMELSSLRSEDTAVYYCAASTPMGGHTDWLDPWGQGTLVTVSS
VL: QSVLTQPPSVSAAPGQKVTISCSGSSSNIGNNYVSWYQQLPGTAPKLLIYDNNKRPSGIPDRFSGSKSGTSATLGITGLQTGDEADYYCGTWDSSLSAGVFGGGTKLTVL
B12: Antibody 12-9 (antibody, V domains shown)
VH: EVQLVESGGGLVKPGGSLRLSCAASEFTFSSYSMNWVRQAPGKGLEWVSSISSSGSDIYYADSVKGRFTISRDNAKKSLYLQMNSLRVEDTAVYYCATNGGAHSSTWSFYGMDVWGQGTTVTVSS
VL: SYELTQPPSVSVSPGQTATITCSGDKLGDKYACWYQQRPGQSPVLVIYQDSKRPSGIPERFSGSNSGNTATLTIGGTQAMDEAAYFCQAWDSNTGVFGGGTKLTVL
B13: Antibody 12-17 (antibody, V domains shown)
VH: EVQLVESGGGLVKPGGSLRLSCAASGFTLNSYSMNWVRQAPGKGLEWVSSISSTSSDIYYADSVKGRFTISRDNAKNSVDLQMNSLRAEDTAVYYCATNGGAHRNTWSFYGMDVWGQGTTVTVSS
VL: B12 VL with T19S, C33S, R38K, S51T, A70V, G75S, A84D, F86Y, N93S
B14: Antibody 12-11 (antibody, V domains shown)
VH: QVQVVQSGAEVKKPGASVKVSCKVSGYTLIEISIHWVRQAPGKGLEWMGGFDPEAGETIYAQKFQGRVTMTEDTSTDTAYMEVSSLRSEDTAVYYCATGPAIAAAETNWFDLWGQGTLVTVSS
VL: QSALTQPASVSGSPGQSITISCTGTSSDVGSYNYVSWYQQHPGKAPKLMIYDVTKRPSGVPDRFSGSKSGNTASLTISGLQAEDEADYYCSSYTSSSTWVFGGGTKLTVL
B15: Antibody 12-13 (antibody, V domains shown)
VH: QVQVVQSGAEVKKPGASVKVSCKVSGYTLTELSIHWVRQTPGKGLEWMGGFDPEDGETIYAQWLQGRVTMTEDTSTDIAYMELSSLRHEDTAVYYCATGPAIAGAGTNWFDPRGQGTLVIVSS
VL: B14 VL with S31G, T54S, S91T, S95N

Each binder was assayed against T1, SARS-CoV-2 RBD (receptor binding domain of spike protein of SARS-CoV-2) (SARS-CoV-2, UniProt P0DTC2 319-541) (assay: HTRF ACE2/RBD binding assay (665/620 ratio); blocked ligand: ACE2).

**Q.** How did the IC50 turn out when B1 was run?
**A.** 0.109 µg/mL

**Q.** For B2, which IC50 is on record?
**A.** 0.0954 µg/mL

**Q.** Which IC50 does the source give for B3 here?
**A.** 0.105 µg/mL

**Q.** B4 was tested. Which IC50 did it give?
**A.** 0.103 µg/mL

**Q.** How did the IC50 turn out when B5 was run?
**A.** 0.103 µg/mL

**Q.** Which IC50 does the source give for B6 here?
**A.** 0.115 µg/mL

**Q.** How did the IC50 turn out when B7 was run?
**A.** 0.117 µg/mL

These binders were tested against T1, SARS-CoV-2 RBD (receptor binding domain …) (assay: not given).

**Q.** With B5 as the binder, how does the Kd read?
**A.** 0.047 nM

What follows are binders tested against T1, SARS-CoV-2 RBD (receptor binding domain …) (assay: ELISA, SARS-CoV-2 RBD coated on the plate, anti-human IgG-HRP, OD450).

**Q.** How did the EC50 turn out when B8 was run?
**A.** 0.0243 µg/mL

**Q.** How did the EC50 turn out when B1 was run?
**A.** 0.0483 µg/mL

**Q.** For B9, which EC50 is on record?
**A.** 0.0269 µg/mL

**Q.** How did the EC50 turn out when B2 was run?
**A.** 0.00473 µg/mL

**Q.** Which EC50 does the source give for B3 here?
**A.** 0.0886 µg/mL

**Q.** Which EC50 does the source give for B4 here?
**A.** 0.0162 µg/mL

**Q.** How did the EC50 turn out when B5 was run?
**A.** 0.0506 µg/mL

**Q.** B6 was tested. Which EC50 did it give?
**A.** 0.0493 µg/mL

**Q.** B7 was tested. Which EC50 did it give?
**A.** 0.0372 µg/mL

These binders were tested against T1, SARS-CoV-2 RBD (receptor binding domain …) (assay: ELISA, S1-RBD coated on the plate, antibody at one concentration, anti-human IgG-HRP).

**Q.** For B10, which OD450 is on record?
**A.** 0.0693

**Q.** B11 was tested. Which OD450 did it give?
**A.** 0.0815

**Q.** How did the OD450 turn out when B12 was run?
**A.** 0.0764

**Q.** For B13, which OD450 is on record?
**A.** 0.0641

**Q.** Which OD450 does the source give for B14 here?
**A.** 0.0638

**Q.** B15 was tested. Which OD450 did it give?
**A.** 0.06

These binders were tested against T2, SARS-CoV-2 S1 (S1 subunit of spike protein of SARS-CoV-2) (SARS-CoV-2, UniProt P0DTC2 14-685) (assay: ELISA, SARS-CoV-2 S1 coated on the plate, anti-human IgG-HRP, OD450).
T2 construct: domain: S1; also called SARS-CoV-2 Spike protein S1 domain

**Q.** B10 was tested. Which “EC50 (read off the curve)” value did it give?
**A.** ~0.1 µg/mL

**Q.** With B11 as the binder, how does the “EC50 (read off the curve)” value read?
**A.** ~0.1 µg/mL

**Q.** Which “EC50 (read off the curve)” value does the source give for B12 here?
**A.** ~0.03 µg/mL

**Q.** Which “EC50 (read off the curve)” value does the source give for B13 here?
**A.** ~0.04 µg/mL

**Q.** How did the “EC50 (read off the curve)” value turn out when B14 was run?
**A.** ~0.1 µg/mL

**Q.** B15 was tested. Which “EC50 (read off the curve)” value did it give?
**A.** ~0.07 µg/mL

What follows are binders tested against T3, SARS-CoV-2 S1 protein NTD (N-terminal domain of spike protein of SARS-CoV-2) (SARS-CoV-2, UniProt P0DTC2 14-305) (assay: biolayer interferometry, ForteBio Octet RED96e, NTD 250 nM to 7.81 nM, 1:1 model).
T3 construct: also called S1-NTD; NTD of S1 subunit

**Q.** Which Kd does the source give for B10 here?
**A.** 7.08 nM

**Q.** For B11, which Kd is on record?
**A.** 4.39 nM

**Q.** Which Kd does the source give for B12 here?
**A.** 16.7 nM

**Q.** With B13 as the binder, how does the Kd read?
**A.** 5.49 nM

**Q.** With B14 as the binder, how does the Kd read?
**A.** 5.82 nM

**Q.** Which Kd does the source give for B15 here?
**A.** 5.61 nM

The binders below were run against T1, SARS-CoV-2 RBD (receptor binding domain …) (assay: HTRF ACE2/RBD binding assay, competition with ACE2).

**Q.** B8 was tested. Which IC50 did it give?
**A.** 4.14 µg/mL

What follows are binders tested against T3, SARS-CoV-2 S1 protein NTD (N-terminal …) (assay: ELISA, S1-NTD coated on the plate, antibody at one concentration, anti-human IgG-HRP).

**Q.** Which OD450 does the source give for B10 here?
**A.** 3.98

**Q.** How did the OD450 turn out when B11 was run?
**A.** 3.91

**Q.** With B12 as the binder, how does the OD450 read?
**A.** 3.76

**Q.** For B13, which OD450 is on record?
**A.** 3.95

**Q.** How did the OD450 turn out when B14 was run?
**A.** 3.93

**Q.** How did the OD450 turn out when B15 was run?
**A.** 3.96

Molecular target: T1, SARS-CoV-2 RBD (receptor binding domain …)
Assay: not given
Remark: another data set of the same source

**Q.** How did the Kd turn out when B8 was run?
**A.** 4.75 nM

**Q.** For B1, which Kd is on record?
**A.** 1.55 nM

**Q.** How did the Kd turn out when B9 was run?
**A.** 4.32 nM

**Q.** Which Kd does the source give for B2 here?
**A.** 1.28 nM

**Q.** How did the Kd turn out when B3 was run?
**A.** 0.835 nM

**Q.** B4 was tested. Which Kd did it give?
**A.** 2.62 nM

**Q.** How did the Kd turn out when B6 was run?
**A.** 0.217 nM

**Q.** Which Kd does the source give for B7 here?
**A.** 0.392 nM
